Assay results published in patent US6656907B1, “Method of treating gastric ulcer by administration of epidermal growth factor” (University Technologies International Inc., priority 1995, dated 2003).

Legend:
[1] = Stability of lyophilized EGF in drinking water; format: physicochemical; settings: lyophilized EGF added to drinking water
[2] = Weight gain in healthy rabbits given daily oral EGF; format: in vivo, New Zealand white rabbits
Procedure: EGF was tested for its potential benefits on weight gain. One group of New Zealand white rabbits (6 week old, 500-700 g) received daily oral doses of recombinant human EGF (100 μg/kg body weight) and control animals were given saline only. […] Given the linear aspect of both curves, continued feeding with EGF is likely to produce a steadily increasing. effect on weight gain.

[3] = test system: intestinal brush border membrane nutrient absorption; assay: Nutrient uptake into brush border membrane vesicles after jejunal loop treatment; format: in vivo, New Zealand White rabbits
Procedure: Subsequent experiments examined the effects of EGF and an inhibitor of the EGF receptor (tyrphostin 51) on intestinal brush border membrane nutrient absorption. Tyrphostin 51is a specific inhibitor of tyrosine kinase, which is a critical element of the EGF intracellular signalling cascade. Studies were performed in New Zealand White rabbits (700-1000 g; approximately 8 weeks of age). Two 10 cm blind jejunal loops separated by a 1 cm segment were tied off starting 5 cm distal to the ligament of Treitz. In separate experiments either EGF (60 ng/ml), EGF+tyrphostin (10 μM), or tyrphostin (10 μM) alone in 1.5 ml of saline vehicle was administered to one of the loops. The other loop received vehicle alone and served as a paired control. After one hour, the loops were removed and the mucosa scraped for preparation of brush border membrane vesicles. Nutrient (D-glucose and L-proline) uptake into brush border membrane vesicles was determined by established techniques. Luminal EGF stimulated a significant increase (p<0.001) in brush border membrane glucose (EGF 16.1±1.0 vs CONTROL 11.5±0.9 nmol/min/mg protein; n=5) and proline (EGF 3.8±0.5 vs CONTROL 2.6±0.3 nmol/min/mg protein; n=5) transport compared to controls. […] Subsequently, a further series of experiments examined the effect of tyrphostin alone on brush border glucose transport. […] Thus, EGF treatment increases nutrient absorption and promotes weight gain. Conversely, tyrphostin treatment may promote a decrease in weight gain or weight loss and therefore may be useful in the treatment of obesity. Tyrphostin treatment may also reduce the intestinal uptake of toxic or adverse substances.

E. coli = E. coli translocation across confluent CaCo2 monolayers on Transwell membranes; format: cell-based, human
Procedure: (§1) Two×10^8 human pathogenic Salmonella typhimurium or E. coli were added to the apical surface of confluent human CaCo2 monolayers grown on Transwell membranes (porosity 3.0 μm). Monolayers received apical EGF (100 μM) or PBS 15 min prior to infection. Each hour post infection (0-7 h), medium under the membrane was replaced and bacterial transepithelial migration rate (CFU/h) was calculated.

RDEC-E. coli = RDEC-E. coli intestinal infection in rabbits, oral EGF; format: in vivo, New Zealand White rabbits
Procedure: Twenty-eight New Zealand White rabbits (6 wk-old) were studied in 3 groups: 1) Controls (Con, n=9), 2) Infected with 1×10^7 RDEC-E. coli (I, n=10), and 3) Infected-treated with 60 μg oral EGF daily for 10 days, starting 3 days prior to infection (I-EGF, n=9). Animals were assessed daily for weight gain, rectal passage of E. coli, and presence of diarrhea. Seven days post-infection, animals were killed and mucosa obtained from the jejunum (JEJ), ileum (ILE), and proximal colon (PROX) for quantitation of E. coli, and from the jejunum for mucosal enzyme assays.

Salmonella typhimurium = Salmonella typhimurium translocation across confluent CaCo2 monolayers on Transwell membranes; format: cell-based, human; settings: apical EGF 100 μM 15 min prior to infection
Procedure: as §1

[4] = jejunum mucosa, 7 days after inoculation

B1: epidermal growth factor (protein, UniProt P01133 23-1207, looked up)
Pro-epidermal growth factor: PQHWSCPEGTLAGNGNSTCVGPAPFLIFSHGNSIFRIDTEGTNYEQLVVDAGVSVIMDFHYNEKRIYWVDLERQLLQRVFLNGSRQERVCNIEKNVSGMAINWINEEVIWSNQQEGIITVTDMKGNNSHILLSALKYPANVAVDPVERFIFWSSEVAGSLYRADLDGVGVKALLETSEKITAVSLDVLDKRLFWIQYNREGSNSLICSCDYDGGSVHISKHPTQHNLFAMSLFGDRIFYSTWKMKTIWIANKHTGKDMVRINLHSSFVPLGELKVVHPLAQPKAEDDTWEPEQKLCKLRKGNCSSTVCGQDLQSHLCMCAEGYALSRDRKYCEDVNECAFWNHGCTLGCKNTPGSYYCTCPVGFVLLPDGKRCHQLVSCPRNVSECSHDCVLTSEGPLCFCPEGSVLERDGKTCSGCSSPDNGGCSQLCVPLSPVSWECDCFPGYDLQLDEKSCAASGPQPFLLFANSQDIRHMHFDGTDYGTLLSQQMGMVYALDHDPVENKIYFAHTALKWIERANMDGSQRERLIEEGVDVPEGLAVDWIGRRFYWTDRGKSLIGRSDLNGKRSKIITKENISQPRGIAVHPMAKRLFWTDTGINPRIESSSLQGLGRLVIASSDLIWPSGITIDFLTDKLYWCDAKQSVIEMANLDGSKRRRLTQNDVGHPFAVAVFEDYVWFSDWAMPSVMRVNKRTGKDRVRLQGSMLKPSSLVVVHPLAKPGADPCLYQNGGCEHICKKRLGTAWCSCREGFMKASDGKTCLALDGHQLLAGGEVDLKNQVTPLDILSKTRVSEDNITESQHMLVAEIMVSDQDDCAPVGCSMYARCISEGEDATCQCLKGFAGDGKLCSDIDECEMGVPVCPPASSKCINTEGGYVCRCSEGYQGDGIHCLDIDECQLGEHSCGENASCTNTEGGYTCMCAGRLSEPGLICPDSTPPPHLREDDHHYSVRNSDSECPLSHDGYCLHDGVCMYIEALDKYACNCVVGYIGERCQYRDLKWWELRHAGHGQQQKVIVVAVCVVVLVMLLLLSLWGAHYYRTQKLLSKNPKNPYEESSRDVRSRRPADTEDGMSSCPQPWFVVIKEHQDLKNGGQPVAGEDGQAADGSMQPTSWRQEPQLCGMGTEQGCWIPVSSDKGSCPQVMERSFHMPSYGTQTLEGGVEKPHSLLSANPLWQQRALDPPHQMELTQ
modifications: Pro-epidermal growth factor
stability in drinking water [1]: proven stable | mean cumulative weight gain ([2]; at 9 days, 100 μg/kg body weight daily oral, n=10, controls 394±16 g): 422 ± 27 g | slope of the linear regression curve of weight gain ([2]; vs untreated controls, P 0.002, FIG. 1): significantly greater | brush border membrane proline transport ([3]; EGF 60 ng/ml luminal, one hour, n=5, control 2.6±0.3): 3.8±0.5 nmol/min/mg protein | brush border membrane glucose transport ([3]; EGF 60 ng/ml luminal, one hour, n=5, control 11.5±0.9): 16.1±1.0 nmol/min/mg protein | glucose absorption in intact tissue ([3]; luminal EGF, initial experiments): increased | microorganisms adhering to the epithelial surface (scanning electron microscopy) (E. coli; Transwell membrane studies, bacterium not specified): significantly higher numbers of microorganisms adhering to the epithelial surface of untreated monolayers | delay of initial E. coli translocation (E. coli; apical EGF 100 μM 15 min prior to infection): 1 h | inhibition of rate of E. coli invasion (transepithelial migration rate) (E. coli; apical EGF 100 μM, after the initial delay): > 95% | stool cultures for E. coli (RDEC-E. coli; I-EGF group): positive | animals with diarrhea (RDEC-E. coli; I-EGF group, 4 animals in infected group): none | effect on infection-induced reduced weight gain (RDEC-E. coli; I-EGF vs I): prevented | effect on jejunum maltase and sucrase activities (RDEC-E. coli; I-EGF vs I): prevented the decrease | reduction of E. coli colonization in the jejunum, ileum and proximal colon (RDEC-E. coli; compared to infected (I)): > 85% | E. Coli ILE (RDEC-E. coli; ileum mucosa, 7 days after inoculation): 4.88 ± 0.2 Log10 CFU/cm | % bacterial clearance in infected + EGF group, ILE (RDEC-E. coli; ileum, vs infected): 95% | Cumulative Weight Gain (RDEC-E. coli; infected rabbits, 60 μg oral EGF daily for 10 days, 7 days after inoculation): 316 ± 16 grams | E. Coli JEJ (RDEC-E. coli; [4]): 3.10 ± 0.4 Log10 CFU/cm | MALT (jejunum maltase activity) (RDEC-E. coli; [4]): 436 ± 48 u/g | SUC (jejunum sucrase activity) (RDEC-E. coli; [4]): 89 ± 19 u/g | % bacterial clearance in infected + EGF group, JEJ (RDEC-E. coli; jejunum, vs infected): 92% | E. Coli PROX (RDEC-E. coli; proximal colon mucosa, 7 days after inoculation): 4.09 ± 0.2 Log10 CFU/cm | % bacterial clearance in infected + EGF group, PROX (RDEC-E. coli; proximal colon, vs infected): 85% | translocation of S. typhimurium (Salmonella typhimurium): completely abolished
